{"source": "patent US7268216B2", "about": "“Chimeric avidin mutants” (Licentia Oy, priority 2004, dated 2007)", "key": {"[1]": {"assay": "Differential scanning calorimetry (DSC), heat denaturation", "assay_type": "physicochemical", "settings": "for ΔTm, change in Tm upon addition of a three-fold molar excess of biotin / Tm(+biotin) / ΔH (unfolding enthalpy) / Tm(−biotin): DSC; for Tm(+biotin): biotin 3:1 molar ratio biotin:avidin monomer; for ΔH (unfolding enthalpy): sample without biotin; for Tm(−biotin): without biotin, average ± S.D", "protocol": "The transition midpoint of the heat denaturation (Tm) of the avidin proteins was studied using a Calorimetry Sciences Corporation (CSC) Nano II differential scanning calorimeter, as in previous reports (22,23). Proteins (˜0.5 mg/ml) were analyzed both in the absence and presence of biotin (3:1 molar ratio; biotin:avidin monomer)."}, "[2]": {"assay": "Microplate assay: remaining biotin-binding activity after heat treatment", "assay_type": "physicochemical", "settings": "50 mM phosphate buffer, 100 mM NaCl, pH 7.0", "protocol": "The inactivation of the proteins during heat-treatment was analysed by using a microplate assay (23). The proteins were heated to 99.9° C. in 50 mM phosphate buffer containing 100 mM NaCl (pH 7.0) for 32 minutes. The remaining activity was probed by measuring the ability of the proteins to bind biotinylated alkaline phosphatase by coating the microplate wells with samples of the heated proteins."}, "Proteinase K [3]": {"tested_on": "Proteinase K", "assay": "Proteinase K assay (proteolytic resistance, SDS-PAGE)", "assay_type": "physicochemical", "settings": "for state after incubation with Proteinase K: 16 hours, in the presence or absence of biotin", "protocol": "The proteolytic resistance of the proteins were studied using proteolysis by Proteinase K, as previously described (7). Protein sample (4 μg) was incubated in the presence of Proteinase K ( 1/25 w/w) at 37° C. for a predetermined time period, denatured by boiling in sample buffer (SDS, 2-mercaptoethanol) and subjected to SDS-PAGE followed by coomassie staining."}, "[4]": {"assay": "IAsys optical biosensor (SPR), 2-iminobiotin binding", "settings": "2-iminobiotin surface, 20° C., 50 mM borate buffer pH 9.5, 1 M NaCl", "protocol": "The biotin-binding characteristics of the different avidins were studied by a surface plasmon resonance (SPR) optical biosensor (IAsys). The binding affinities to the 2-iminobiotin surface in 50 mM borate buffer (pH 9.5, 1 M NaCl) were measured as previously reported (7)."}, "[5]": {"assay": "Radiobiotin dissociation assay", "assay_type": "binding", "settings": "[3H]biotin, various temperatures", "protocol": "The dissociation rate of [3H]biotin from avidin, AVR4/5 and the avidin mutants was determined as described in (20) at various temperatures. The activation thermodynamic parameters for AVR4/5(C122S) and avidin were determined by analysis of the dependence of the dissociation rate upon temperature using the global fit of all data, as described in (21)."}, "[6]": {"assay": "Fluorescent biotin dissociation assay", "assay_type": "binding", "protocol": "The binding of labelled biotin to avidins was analysed by a method based on the quenching of a biotin-coupled fluorescent probe ArcDia BF560 (ArcDia Ltd., Turku, Finland) due to binding to avidin, as previously described (18). The measurements were performed using a PerkinElmer LS55 luminometer with thermostated cuvette (25 or 50° C.). The signal measured for 3600 sec (25° C.) or 2400 sec (50° C.) was used to determine the dissociation rate constant."}, "[7]": {"settings": "cited from earlier work"}, "Proteinase K [8]": {"tested_on": "Proteinase K", "settings": "even without bound biotin; refs (8,32); cited from earlier work"}, "[9]": {"settings": "recombinant protein, earlier report; cited from earlier work"}}, "note": "Read-outs that look alike come from different tables or passages of the source. Marks after values point to notes of the source that are not given here.", "data": [{"molecule": "ChiAVD: Chimeric avidin: residues 38-58 moved from AVR4/5 to avidin (SEQ ID NO:15) (protein, listed as Gallus gallus) MVHATSPLLLLLLLSLALVAPGLSARKCSLTGKWTNDLGSNMTIGAVNSRGEFTGTYITAVADNPGNITLSPLLGIQHKRASQPTFGFTVNWKFSESTTVFTGQCFIDRNGKEVLKTMWLLRSSVNDIGDDWKATRVGINIFTRLRTQKE", "values": [{"measurement": "Tm, transition midpoint of heat denaturation", "setting": "[1]", "value": 96.5, "unit": "°C"}, {"measurement": "ΔTm, change in Tm upon addition of a three-fold molar excess of biotin", "setting": "[1]", "value": 27.9, "unit": "°C"}, {"measurement": "Tm(+biotin)", "setting": "[1]", "value": "124.4 ± 0.2", "unit": "°C"}, {"measurement": "ΔH (unfolding enthalpy)", "setting": "[1]", "value": "126 ± 2.39", "unit": "kcal/mol"}, {"measurement": "Tm(−biotin)", "setting": "[1]", "value": "96.5 ± 0.2", "unit": "°C"}, {"measurement": "Activity: biotin-binding activity after 32 min treatment at 99.9° C.", "setting": "[2]", "value": 47, "unit": "%"}, {"measurement": "state after incubation with Proteinase K", "setting": "Proteinase K [3]", "value": "remaining intact"}, {"measurement": "kass, association rate constant", "setting": "[4]", "value": "(1.7 ± 0.1) × 10^4 M^−1s^−1"}, {"measurement": "biotin binding / dissociation rate in radiobiotin dissociation assay", "setting": "[5]", "value": "resembled AVR4/5(C122S)"}, {"measurement": "Release 1 h (total release of the probe)", "setting": "[6]; 25° C.", "value": 13.1, "unit": "%"}, {"measurement": "kdiss, dissociation rate constant", "setting": "[6]; 25° C.", "value": "1.76 10^−5 s^−1"}, {"measurement": "Release 1 h (total release of the probe)", "setting": "[6]; 50° C.", "value": 93.9, "unit": "%"}, {"measurement": "kdiss, dissociation rate constant", "setting": "[6]; 50° C.", "value": "8.00 10^−4 s^−1"}]}, {"molecule": "ChiAVD(I117Y): Residues 38-58 moved from AVR4/5 to avidin and mutation I117Y in 1-3 subunit interface (SEQ ID NO:16) (protein, listed as Gallus gallus) MVHATSPLLLLLLLSLALVAPGLSARKCSLTGKWTNDLGSNMTIGAVNSRGEFTGTYITAVADNPGNITLSPLLGIQHKRASQPTFGFTVNWKFSESTTVFTGQCFIDRNGKEVLKTMWLLRSSVNDIGDDWKATRVGYNIFTRLRTQKE", "values": [{"measurement": "Tm, transition midpoint of heat denaturation", "setting": "[1]", "value": 111.1, "unit": "°C"}, {"measurement": "ΔTm, change in Tm upon addition of a three-fold molar excess of biotin", "setting": "[1]", "value": "~19", "unit": "°C"}, {"measurement": "Tm(+biotin)", "setting": "[1]", "value": "~130^d ° C."}, {"measurement": "ΔH (unfolding enthalpy)", "setting": "[1]", "value": "158 ± 9.08", "unit": "kcal/mol"}, {"measurement": "Tm(−biotin)", "setting": "[1]", "value": "111.1 ± 0.2", "unit": "°C"}, {"measurement": "Activity: biotin-binding activity after 32 min treatment at 99.9° C.", "setting": "[2]", "value": 98, "unit": "%"}, {"measurement": "state after incubation with Proteinase K", "setting": "Proteinase K [3]", "value": "remaining intact"}, {"measurement": "kass, association rate constant", "setting": "[4]", "value": "(1.6 ± 0.2) × 10^4 M^−1s^−1"}, {"measurement": "biotin binding / dissociation rate in radiobiotin dissociation assay", "setting": "[5]", "value": "resembled AVR4/5(C122S)"}, {"measurement": "Release 1 h (total release of the probe)", "setting": "[6]; 25° C.", "value": 9.5, "unit": "%"}, {"measurement": "kdiss, dissociation rate constant", "setting": "[6]; 25° C.", "value": "1.94 10^−5 s^−1"}, {"measurement": "Release 1 h (total release of the probe)", "setting": "[6]; 50° C.", "value": 94.8, "unit": "%"}, {"measurement": "kdiss, dissociation rate constant", "setting": "[6]; 50° C.", "value": "7.33 10^−4 s^−1"}]}, {"molecule": "AVR4/5: Avidin-related protein encoded identically by chicken genes AVR4 and AVR5 (protein, UniProt P56734 25-150, looked up) Avidin-related protein 4/5: ARKCSLTGKWTNNLGSIMTIRAVNSRGEFTGTYLTAVADNPGNITLSPLLGIQHKRASQPTFGFTVHWNFSESTTVFTGQCFIDRNGKEVLKTMWLLRSSVNDISYDWKATRVGYNNFTRLCTVEE", "values": [{"measurement": "biotin binding / dissociation rate in radiobiotin dissociation assay", "setting": "[5]", "value": "almost as tightly as avidin"}, {"measurement": "Tm, transition midpoint of heat denaturation", "setting": "[7]; from ref (8)", "value": 106.4, "unit": "°C"}, {"measurement": "resistance to cleavage by Proteinase K", "setting": "Proteinase K [8]", "value": "resistant to cleavage"}, {"measurement": "biotin binding", "setting": "[9]", "value": "almost as tightly as avidin"}]}, {"molecule": "AVR4/5(C122S): AVR4/5 with the cysteine forming intermonomeric disulphide bridges mutated to serine; insect cell produced (protein, UniProt P56734 25-150, looked up, variant C122S) Avidin-related protein 4/5: ARKCSLTGKWTNNLGSIMTIRAVNSRGEFTGTYLTAVADNPGNITLSPLLGIQHKRASQPTFGFTVHWNFSESTTVFTGQCFIDRNGKEVLKTMWLLRSSVNDISYDWKATRVGYNNFTRLSTVEE", "values": [{"measurement": "Activity: biotin-binding activity after 32 min treatment at 99.9° C.", "setting": "[2]", "value": 72, "unit": "%"}, {"measurement": "resistance to the proteolytic activity of Proteinase K", "setting": "Proteinase K [3]; even without biotin", "value": "total resistance"}, {"measurement": "kass, association rate constant", "setting": "[4]", "value": "(9.3 ± 0.4) × 10^3 M^−1s^−1"}, {"measurement": "biotin binding / dissociation rate in radiobiotin dissociation assay", "setting": "[5]", "value": "tight biotin binding"}, {"measurement": "Release 1 h (total release of the probe)", "setting": "[6]; 25° C.", "value": 12.5, "unit": "%"}, {"measurement": "kdiss, dissociation rate constant", "setting": "[6]; 25° C.", "value": "2.77 10^−5 s^−1"}, {"measurement": "Release 1 h (total release of the probe)", "setting": "[6]; 50° C.", "value": 93.7, "unit": "%"}, {"measurement": "kdiss, dissociation rate constant", "setting": "[6]; 50° C.", "value": "7.88 10^−4 s^−1"}, {"measurement": "ΔH (unfolding enthalpy)", "setting": "[7]; DSC, sample without biotin, results from ref (8)", "value": "137 ± 7.89", "unit": "kcal/mol"}, {"measurement": "Tm(+biotin)", "setting": "[7]; DSC, with biotin, results from ref (8)", "value": "125.4 ± 0.8", "unit": "°C"}, {"measurement": "Tm(−biotin)", "setting": "[7]; DSC, without biotin, results from ref (8)", "value": "106.4 ± 0.8", "unit": "°C"}, {"measurement": "ΔTm, change in Tm upon addition of a three-fold molar excess of biotin", "setting": "[7]; DSC, results from ref (8)", "value": 19.5, "unit": "°C"}]}, {"molecule": "AVR4/5(C122S)-b: AVR4/5(C122S) produced in E. coli, non-glycosylated, three additional N-terminal residues (Gln-Thr-Val) (protein, UniProt P56734 25-150, looked up, variant C122S, N-terminal Gln-Thr-Val extension) Avidin-related protein 4/5: ARKCSLTGKWTNNLGSIMTIRAVNSRGEFTGTYLTAVADNPGNITLSPLLGIQHKRASQPTFGFTVHWNFSESTTVFTGQCFIDRNGKEVLKTMWLLRSSVNDISYDWKATRVGYNNFTRLSTVEE", "values": [{"measurement": "ΔTm, change in Tm upon addition of a three-fold molar excess of biotin", "setting": "[1]", "value": 17.2, "unit": "°C"}, {"measurement": "Tm(+biotin)", "setting": "[1]", "value": 127.1, "unit": "°C"}, {"measurement": "ΔH (unfolding enthalpy)", "setting": "[1]", "value": 110, "unit": "kcal/mol"}, {"measurement": "Tm(−biotin)", "setting": "[1]", "value": 109.9, "unit": "°C"}, {"measurement": "Activity: biotin-binding activity after 32 min treatment at 99.9° C.", "setting": "[2]", "value": 56, "unit": "%"}, {"measurement": "state after incubation with Proteinase K", "setting": "Proteinase K [3]", "value": "remaining intact"}, {"measurement": "biotin binding / dissociation rate in radiobiotin dissociation assay", "setting": "[5]", "value": "slightly slower dissociation rate"}, {"measurement": "Release 1 h (total release of the probe)", "setting": "[6]; 25° C.", "value": 10.9, "unit": "%"}, {"measurement": "kdiss, dissociation rate constant", "setting": "[6]; 25° C.", "value": "2.31 10^−5 s^−1"}, {"measurement": "Release 1 h (total release of the probe)", "setting": "[6]; 50° C.", "value": 88.3, "unit": "%"}, {"measurement": "kdiss, dissociation rate constant", "setting": "[6]; 50° C.", "value": "6.20 10^−4 s^−1"}]}]}
